Consider 4 molecules from patent US20140363438A1, “NEUREGULIN ANTIBODIES AND USES THEREOF” (Genentech, Inc., priority 2011, published 2014).

For experiment [1], the system named is Calu3-shNRG1 xenograft tumors. The experiment can be described thus: Calu3-shNRG1 xenograft, NRG1 knockdown +/- chemotherapy. In kind it is in vivo, human. Particulars: dox induces NRG1 knockdown, chemotherapy paclitaxel + cisplatin. As to the method:
Tumor cells (10-20 million) were transplanted into right flank of athymic nude mice. When tumor size reached ˜200 mm^3, the mice were divided into different treatment groups. Mice were then treated with either vehicle or chemotherapy (paclitaxel, i.v.+cisplatin, i.p.) for the initial studies. The chemotherapy dosing regimen was paclitaxel 20 mg/kg i.v. every other day for 5 doses and cisplatin 5 mg/kg i.p. on days 1 and 7 for the Calu3 model and days 1 and 14 for the H441 model. Regressed tumors and time matched vehicle controls were collected at least 1 week after the last dose of chemo. Tumors were dissociated using dispase/collagenase and samples were FACS sorted to collect the GFP positive tumor cells. For the NRG1 knockdown studies, the treatment groups were: sucrose, doxycycline (dox), chemotherapy+sucrose, and chemotherapy+doxycycline. […]
To determine the efficacy of NRG1-targeting in the Calu3 model, Calu3-shNRG1 tumor bearing mice were assigned to four groups; 1) vehicle+sucrose, 2) vehicle+dox, 3) chemotherapy+sucrose, and 4) chemotherapy+dox. […] Tumor volume was measured twice a week for the duration of the study.
The effect of NRG1 on tumor relapse was assessed by comparing the growth of tumors in the chemotherapy+sucrose with those in the chemotherapy+dox group. […] Therefore, the measured volumes were considerably larger than the actual tumor volume in the dox-treated groups. […]
A general note: In xenograft studies the graft and the host belong to different species.

Experiment [2] relates to lung tumors of LSL-K-rasG12D;p53Fl/+ mice. The experiment can be described thus: Lung tumor burden by micro-CT in LSL-K-rasG12D;p53Fl/+ mice. In kind it is in vivo, mouse. Particulars: FIG. 3A-B. As to the method: LSL-K-ras^G12D;p53^F1/+ were infected with Adeno-Cre virus and allowed to age for 16 weeks post-tumor induction. Baseline CT scans were performed at 16 weeks post-tumor induction (day 0 of study) and mice were grouped such that average starting tumor volume per group were equal. Mice were dosed once a week for three weeks with cisplatin (7 mg/kg) or phosphate-buffered saline, and bi-weekly with HER4ECD-Fc (25 mg/kg) or anti-ragweed IgG2A (25 mg/kg) for the duration of the study. Serial CT scans were performed at days 14, 45, and 66.
Two micro-CT systems (vivaCT 40 and vivaCT 75, Scanco Medical, Switzerland) were utilized for longitudinal lung imaging. Animals were randomized between micro-CT systems and rescanned on the same system used for baseline imaging. […] The imaging data were evaluated in the coronal plane using the image analysis software package Analyze (AnalyzeDirect, Inc., Lenexa, Kans., USA). Once the largest cross-sectional plane of each tumor was identified, estimates of maximal tumor diameter (d1) and the largest perpendicular diameter (d2) were determined. The total tumor burden was calculated as the sum of the cross-product of the directional estimates (d1×d2) of all the tumors. […]

For experiment [3], the target named is T1, Recombinant human NRG1-β ECD domain (R&D Systems, cat#377-HB/CF) (human, UniProt Q02297-11 121-191, limits assumed).
T1 construct: also called NRG1-beta; HRG1β
T1 sequence: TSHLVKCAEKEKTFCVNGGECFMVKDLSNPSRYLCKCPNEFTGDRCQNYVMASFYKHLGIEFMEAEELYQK
Kind of experiment: competition ELISA on NRG1β; self-competition, signal read: 538.24.71. Background: ELISA stands for enzyme-linked immunosorbent assay.

Experiment [4] has as its target T1, Recombinant human NRG1-β ECD domain …. The experiment can be described thus: competition ELISA on NRG1β; competitor whose signal is read: 526.90.
In experiment [5] the target is T2, Recombinant human NRG1-α EGF domain (R&D Systems, cat#296-HR/CF) (human, UniProt Q02297 177-241).
T2 construct: also called NRG1-alpha; HRG1α
T2 sequence: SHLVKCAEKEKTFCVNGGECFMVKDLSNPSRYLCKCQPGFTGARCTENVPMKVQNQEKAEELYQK
The experiment can be described thus: SPR (BIAcore T100), IgG captured by anti-human Fc, NRG1α injected; table under the head '250 nM NRG1-alpha'. As to the method:
(§1) Binding affinities of anti-NRG1 IgGs were measured by Surface Plasmon Resonance (SRP) using a BIAcore™-T100 instrument. Anti-NRG1 human IgGs were captured by mouse anti-human Fc antibody (GE Healthcare, cat# BR-1008-39) coated on CM5 biosensor chips to achieve approximately 1000 response units (RU). […] Association rates (kₒₙ) and dissociation rates (koff) were calculated using a simple one-to-one Langmuir binding model (BIAcore Evaluation Software version 3.2). The equilibrium dissociation constant (KD) was calculated as the ratio koff/kₒₙ.
On the technique in general: SPR reads the build-up and loss of mass on a sensor chip optically.

For experiment [6], the target named is T2, Recombinant human NRG1-α EGF domain …. Kind of experiment: cell-based or functional assay.
Experiment [7] addresses T3, Recombinant human Neuregulin 1-beta (rhNRG1b, Genentech) (human, UniProt Q02297 1-640).
T3 sequence: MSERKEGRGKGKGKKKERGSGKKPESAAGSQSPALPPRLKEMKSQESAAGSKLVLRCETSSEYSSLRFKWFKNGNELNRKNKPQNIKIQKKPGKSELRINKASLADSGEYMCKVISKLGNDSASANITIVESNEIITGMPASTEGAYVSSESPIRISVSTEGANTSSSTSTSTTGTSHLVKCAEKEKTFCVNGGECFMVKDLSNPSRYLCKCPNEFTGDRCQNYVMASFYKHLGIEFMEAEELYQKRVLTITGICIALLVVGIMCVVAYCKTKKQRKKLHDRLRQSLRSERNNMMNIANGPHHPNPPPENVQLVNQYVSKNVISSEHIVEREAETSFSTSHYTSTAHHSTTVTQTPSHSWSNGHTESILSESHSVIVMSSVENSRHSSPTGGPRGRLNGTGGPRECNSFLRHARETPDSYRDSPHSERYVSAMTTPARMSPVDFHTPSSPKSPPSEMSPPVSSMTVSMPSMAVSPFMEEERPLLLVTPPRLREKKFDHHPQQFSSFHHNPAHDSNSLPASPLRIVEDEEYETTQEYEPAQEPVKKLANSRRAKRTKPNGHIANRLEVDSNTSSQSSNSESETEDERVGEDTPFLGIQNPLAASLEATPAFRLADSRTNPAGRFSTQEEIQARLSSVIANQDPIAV
The experiment can be described thus: cell-based or functional assay.

In experiment [8] the target is T1, Recombinant human NRG1-β ECD domain …. Kind of experiment: SPR (BIAcore T100), IgG captured by anti-human Fc; table under the head '125nM NRG-beta'; this table is identical to that of FIG. 9 (NRG1-alpha) and does not fit the slow dissociation of the sensorgrams above it.
For experiment [9], the target named is T4, Betacellulin (BTC) (UniProt P35070 32-111).
T4 sequence (looked up): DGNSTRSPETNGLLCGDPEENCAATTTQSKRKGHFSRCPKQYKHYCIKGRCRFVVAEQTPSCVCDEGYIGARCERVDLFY
Kind of experiment: ELISA.

The target in experiment [10] is EGF (UniProt P01133 971-1023). Kind of experiment: ELISA.
Chain of EGF (P01133 971-1023 limits assumed): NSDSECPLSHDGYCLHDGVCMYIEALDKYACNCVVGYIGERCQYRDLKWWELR
Experiment [11] addresses HB-EGF (UniProt Q99075 63-148, limits assumed). The experiment can be described thus: ELISA.
Experiment [12] concerns the target T2, Recombinant human NRG1-α EGF domain …. Kind of experiment: SPR (BIAcore T100), IgG captured by anti-human Fc, NRG1α injected; sensorgram shown for 6.25 nM (sheet: '6.25 mnM NRG alpha'). As to the method: as §1
The target of experiment [13] is T1, Recombinant human NRG1-β ECD domain …. The experiment can be described thus: SPR (BIAcore T100), IgG captured by anti-human Fc, NRG1β injected; sensorgram shown for 6.25 nM (sheet: '6.25 mnM NRG beta'). As to the method: as §1
The target of experiment [14] is T2, Recombinant human NRG1-α EGF domain …. The experiment can be described thus: competition ELISA on NRG1α; self-competition, signal read: 538.24.71.
The target is the same in experiment [15]. Kind of experiment: competition ELISA on NRG1α; competitor whose signal is read: 526.90.
Experiment [16] addresses T1, Recombinant human NRG1-β ECD domain …. The experiment can be described thus: competition ELISA on NRG1β; competitor whose signal is read: 526.02.
Experiment [17] addresses T2, Recombinant human NRG1-α EGF domain …. Kind of experiment: competition ELISA on NRG1α; competitor whose signal is read: 526.02.
The target is the same in experiment [18]. Kind of experiment: competition ELISA on NRG1α; signal of 526.90 against rising 538.24.71.

Broadly, the Kd is the constant that tells how readily two partners part at equilibrium. As a reminder, the koff is the first-order rate constant of dissociation. As a reminder, the kon is the rate constant with which the complex forms.

Chain of HB-EGF (Q99075 63-148 limits assumed): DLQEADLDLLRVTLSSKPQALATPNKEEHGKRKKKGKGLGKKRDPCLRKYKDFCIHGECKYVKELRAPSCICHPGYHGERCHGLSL

In the case of `C[C@H]1c2cccc(O)c2C(O)=C2C(=O)[C@]3(O)C(O)=C(C(N)=O)C(=O)[C@@H](N(C)C)[C@@H]3[C@@H](O)[C@@H]21` [vehicle+dox], the “tumor volume doubling time (TDT)” value in experiment [1] is listed as 44.5 days.

On to `N.N.[Cl][Pt][Cl]` [cisplatin], for which the “tumor growth (average tumor burden and tumor growth rate)” value in experiment [2] was “not significantly different”.

B1: anti-NRG1 antibody 538.24.71 (antibody, human IgG1, kappa, V domains shown)
VH: EVQLVESGGGLVQPGGSLRLSCAASGFTFSGTWIHWVRQAPGKGLEWVAAITPADGSTNYADSVKGRFTISADTSKNTAYLQMNSLRAEDTAVYYCATYMFAMDYWGQGTLVTVSS
VL: DIQMTQSPSSLSASVGDRVTITCRASQDVSISLAWYQQKPGKAPKLLIYGASNLESGVPSRFSGSGSGTDFTLTISSLQPEDFATYYCQQHYTLPFTFGQGTKVEIKR
notes: also called YW538.24.71
Turning to B1, the “IC50 (read off the curve)” value in experiment [3] is roughly 7 nM; in experiment [4], roughly 8 nM; in experiment [14] it was roughly 3 nM; in experiment [15] it was roughly 4 nM; in experiment [16] it was roughly 2 nM; in experiment [17] it was roughly 5 nM. The Kd in [5] is 2 nM; in [8], 2 nM; in experiment [12] it was 1.32 nM; in experiment [13], 0.00192 nM. Further, the koff in [5] came out at 0.03 s⁻¹; in [8] it was 0.03 s⁻¹; in [12], 0.00603 s⁻¹; in experiment [13], 1.48e-06 s⁻¹. In addition, the kon stood at 1.5e+07 M⁻¹ s⁻¹ in [5], 1.5e+07 M⁻¹ s⁻¹ in [8], 4.57e+06 M⁻¹ s⁻¹ in experiment [12] and 771000 M⁻¹ s⁻¹ in [13]. In experiment [6], the “IC50 of inhibition of Her3 activation (phosphorylation), KIRA on MCF-7 cells, 0.5 nM rhNRG1a” value is 14 nM. In [7], the “IC50 of inhibition of Her3 activation (phosphorylation), KIRA on MCF-7 cells, 0.2 nM rhNRG1b” value is 0.12 nM. For the same molecule, the binding result in experiment [9], in [10] and in [11] was “no binding” throughout.

B2: anti-NRG1 antibody 526.90 (antibody, human IgG1, V domains shown)
VH: EVQLVESGGGLVQPGGSLRLSCAASGFTFSGNAMSWVRQAPGKGLEWVSWIYPSGGNTYYADSVKGRFTISADTSKNTAYLQMNSLRAEDTAVYYCARSYILSYPSITWAFDYWGQGTLVTVSS
VL: DIQMTQSPSSLSASVGDRVTITCRASQSISSYLAWYQQKPGKAPKLLIYGASSRASGVPSRFSGSGSGTDFTLTISSLQPEDFATYYCQQSYSTPITFGQGTKVEIKR
notes: also called YW526.90
Take B2: the binding result in [18] is listed as “binds”.
